In publication PMC10378331, “Structural and Kinetic Characterization of the SpeG Spermidine/Spermine N-acetyltransferase from Methicillin-Resistant Staphylococcus aureus USA300” (Cells, 2023):

B1: SaSpeG (Staphylococcus aureus subsp. aureus USA300) (protein)
chain: MKLRALEYSDLLFVHELNNEYSIMSYWFEEPYESLTELQHLFDKHLLDESERRFIVEDENQVVGIVELVEINYIHRNCEIQIIIKPEFSGKGYAKFAFEKAIIYAFNILNMHKIYLYVDADNKKAIHIYESQGFKTEGLLKEQFYTKGKYKDAYFMSLLKSEYIL
notes: E. coli BL21(DE3); dodecamer by PISA
B2: SpeG spermidine/spermine N-acetyltransferase from Staphylococcus aureus USA300 (enzyme)
chain: B1 chain
notes: SpeG spermidine/spermine N-acetyltransferase, Staphylococcus aureus USA300, UniProt A0A0H2XGJ0; gene synthesized and cloned into pMCSG21 at the SspI site; monomer ~19.8 kDa; after TEV cleavage the residues SN would remain at the N-terminus; The number of copies differs by experiment: dodecamer from crystal symmetry and PISA, trimer/tetramer by SEC; also called SaSpeG; source: E. coli BL21 (DE3) …

What was measured:
[1] = substrate: CC(=O)SCCNC(=O)CCNC(=O)[C@H](O)C(C)(C)COP(=O)(O)OP(=O)(O)OC[C@H]1O[C@@H](n2cnc3c(N)ncnc32)[C@H](O)[C@@H]1OP(=O)(O)O; test: DTNB colorimetric CoA assay, discontinuous; format: biochemical, Staphylococcus aureus; conditions: Assay 2, enzyme pre-incubated with spermine, co-substrate 1.5 mM spermine (acceptor and allosteric ligand), 70 mM Bicine pH 8.0, 20 mM NaCl, 0.005% Triton X-100, 22 °C, 22.0 °C
Source text: (§1) DTNB colorimetric CoA assay, discontinuous on SaSpeG

[2] = substrate: NCCCCNCCCN; test: DTNB colorimetric CoA assay, discontinuous; format: biochemical, Staphylococcus aureus; conditions: Assay 1 (standard), no pre-incubation with polyamine, 0.5 mM AcCoA, 70 mM Bicine pH 8.0, 20 mM NaCl, 37 °C, Hill fit
Source text: as §1

[3] = target: the molecule itself; test: crystal structure; ligand-free SaSpeG, 0.1 M NaCl, 0.1 M HEPES pH 8.0, 1.6 M ammonium sulfate; one protomer in the asymmetric unit; oligomer from symmetry-related proteins and PISA analysis

Protein | K0.5 [1] | kcat [1] | kcat/Km [1] | K0.5 [2] | kcat [2] | kcat/Km [2] | stoichiometry N [3]
B1 | 0.29 ± 0.01 mM | 390 s⁻¹ | 1.3e+06 M⁻¹ s⁻¹ | 4.0 ± 0.1 mM | 3 s⁻¹ | 750 M⁻¹ s⁻¹ | –
B2 | – | – | – | – | – | – | 12
